Experiment in all cases: purified protein
What all share (format): biochemical, Aureobasidium melanogenum
Holding throughout (details): standard assay: 100 mM Na2HPO4-citric acid buffer, pH 5.0, 40 °C

Substrate in data set [1]: CCCOC(=O)c1cc(O)c(O)c(O)c1
Substrate in data set [2]: COC(=O)c1cc(O)c(O)c(O)c1
Substrate in data set [3]: O=C(O[C@@H]1Cc2c(O)cc(O)cc2O[C@@H]1c1cc(O)c(O)c(O)c1)c1cc(O)c(O)c(O)c1
Substrate in data set [4]: O=C(O[C@@H]1Cc2c(O)cc(O)cc2O[C@@H]1c1ccc(O)c(O)c1)c1cc(O)c(O)c(O)c1
Substrate in data set [5]: O=C(O[C@@H]1Cc2c(O)cc(O)cc2O[C@H]1c1cc(O)c(O)c(O)c1)c1cc(O)c(O)c(O)c1

B1: TanA (Aureobasidium melanogenum) (protein)
chain: SKDCSKATFQKVIPSNSTFNYVTKVAEGGTFTDAEANANATGLPEGCAVSVKVPTPGNSSYNMAIYMPNKWNSRIITTGNGGYGGFTNWQDLGQYSHYGFSAITTDTGHFNPNVLDSTFALNKGSLENWGWRAMHGSVLVGKALSAAYYGQTHKFSYYSGCSTGGRQGLKEMQVSPDAFDGVFVGAPAWWIPHLSIWTSQATLANLPQNSDHHISAALANVINDEILKQCDPQDGVTDNVIMNPAGCVFNPLTLLCEGAANASACITRPQLDTLYKALHDWTYFDGTLIFPVPSLGTPLVAYIGDSPIPNPMGTGAIEHMLLNTTEPYDWSTFNESVVRLSEAIDPGHGTPDNYDLSTFQKRGGKVIHWHGEADPIIPFRSSSYFYSQVASSVAPHDIEMDSFYKFFPIAGMSHCSGSQYSPWYIAGATQPLTNVSHGVPGFDDAQHNGLLALMRWVENGTAPEQLVATKYNNDDPTKGVYRQRPLCPFPKQPIYTHGNVDSASSWKCS
notes: codon-optimised, signal peptide (first 19 of 528 residues) removed; 6xHis tag kept; secreted by Yarrowia lipolytica, Ni-IDA purified
For B1, the Michaelis-Menten constant (Km) in “purified protein [1]” came out at 1710 µM; in the data set “purified protein [2]”, 2810 µM; in “purified protein [3]”, 2520 µM; in the data set “purified protein [4]”, 2130 µM; in “purified protein [5]”, 1860 µM.

As a reminder, the Km is the concentration of substrate that gives half-maximal velocity.

The values are drawn from article PMC8861512, “Characterization and Secretory Expression of a Thermostable Tannase from Aureobasidium melanogenum T9: Potential Candidate for Food and Agricultural Industries” (Frontiers in Bioengineering and Biotechnology, 2022).
